Each block holds one substance with its values, some of them ahead of it.
What was measured:
[1] = target: recombinant human anti-TNP IgG2 (chimeric, TIB142 VH with human IgG2 constant region) (human) [IgG part: P01859]; assay: ELISA; anti-TNP IgG on TNP-BSA, biotinylated dimer; EC50 as IgG concentration (FIG. 3 D, L)
rituximab [2] = assay: flow cytometry; CD19 B cells in PBMC opsonised with 2.5 µg/ml rituximab, dimer 0.2 µg/ml (FIG. 14E)
obinutuzumab (GAZYVA) [3] = assay: ELISA; mAb captured by F(ab')2 anti-human F(ab')2, biotinylated dimer, streptavidin-HRP (FIG. 8C)
obinutuzumab (GAZYVA) [4] = assay: ELISA; mAb at 1000 and 315 ng/ml captured, ratio of A450 obinutuzumab/rituximab (FIG. 8H)
rituximab [5] = assay: flow cytometry; CD19 B cells in PBMC opsonised with 2.5 µg/ml rituximab, dimer 0.2 µg/ml (FIG. 14F)

EC50 [1]: 0.3 µg/mL | median fluorescence intensity (MFI) (rituximab [2]): 4000 MFI
Substance: Human rsFcγRIIa H131 dimer (from UniProt P12318 34-215) (receptor)

binding preference over rituximab (obinutuzumab (GAZYVA) [3]): 20 fold | binding preference over rituximab (obinutuzumab (GAZYVA) [4]): 10 fold
Substance: Human rsFcγRIIIa F158 dimer (receptor)

median fluorescence intensity (MFI) (rituximab [5]): 11000 MFI
Substance: Human rsFcγRIIIa V158 dimer (receptor)

Source: patent US20180284130A1
